# Measurements published in US7056679 (ANTYRA, dated 2006).
# No end group written: not given here.
# Target: T1, DGI-2 (UniProt Q15004 1-111, limits assumed)
# T1 construct: Soluble recombinant DGI-2 made by in vitro translation (RTS, pIVEX2.3-MCS vector) and coated on plates for the ELISA; vector tag not described; also called KIAA0101; DGI-2 polypeptide
# T1 sequence (looked up): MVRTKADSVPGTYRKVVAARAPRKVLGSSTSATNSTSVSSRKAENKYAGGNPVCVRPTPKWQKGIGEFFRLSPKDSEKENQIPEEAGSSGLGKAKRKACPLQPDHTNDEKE
# Experiment: phage ELISA, coated DGI-2
# Protocol: For analysis of individual target binders, colonies were picked and phage prepared as described above using helper phage, M13KO7. Ninety-six-well microtiter plates were coated with 500 ng/well of specific target protein, 500 ng/well lactate dehydrogenase (LDH) irrelevant or non-specific target, 500 ng/well of positive control antibody raised against ETAG, and negative control of non-fat milk powder-PBS 2% at 4° C. overnight. Plates were then blocked with 350 microliters/well PBS containing 2% non-fat milk for 1 hr at room temperature. One hundred microliters per well of phage from isolated clones were added and plates were incubated at room temperature for 2 hr after centrifuging samples for 20 minutes at 3500 rpm at 4° C. The phage solution was then removed, and the wells were washed three times with PBS at room temperature. Antibody raised against M13 conjugated to horseradish peroxidase (Pharmacia) was diluted 1:3000 in PBS-Tween and added to each well (100 µl/well). Incubation was for 1 hr at room temperature, followed by washing with PBS-(0.5%) Tween 3 times as described. Color was developed by addition of ABTS solution (100 µl/well; Boehringer, Indianapolis, Ind.). Plates were analyzed at 405 nm. A clone was considered "positive" if the $A405$ of the well was $\geq$2-fold over background.
row,Binder,binding result
1,"VVRQGCMAFSGLCSGVTESE (not fully specified; cysteine pairing not given here, on M13 phage, pIII fusion with E-tag) [DGI-2-20R-3-C8]",binds
2,"YTPASILTGFQRGYEGAGNG (on M13 phage, pIII fusion with E-tag) [DGI-2-20R-4-G7]",binds
3,"MSSTAWTDRILQRGIGLGPV (on M13 phage, pIII fusion with E-tag) [DGI-2-20R-4-F1212]",binds
4,"MGVVLECEGGWSIPGQTCYF (not fully specified; cysteine pairing not given here, on M13 phage, pIII fusion with E-tag) [DGI-2-20R-3-C7]",binds
5,"VHSQGRMWAIPGLRGGTGAS (on M13 phage, pIII fusion with E-tag) [DGI-2-20R-3-D7]",binds
6,"REFFNQASRGAWGYMFREWVEG (on M13 phage, pIII fusion with E-tag) [DGI-2-40F-3-A1]",binds
7,"YGTAGLFLRRACTMSDPGDPLGRRGYTGWGVLWDEWVTGS (on M13 phage, pIII fusion with E-tag) [DGI-2-40F-3-C8]",binds
8,"LGRTFVWGTCLHLSVSRFGH (on M13 phage, pIII fusion with E-tag) [DGI-2-20F-PP-C3]",binds
9,"SRPGWCSRGTAWGFPGCSSS (not fully specified (bridges); cysteine pairing not given here, on M13 phage, pIII fusion with E-tag) [DGI-2-20R-3-C4]",binds
10,"EVFVSVWVFRFRVMPVTPGGT (on M13 phage, pIII fusion with E-tag) [DGI-2-20F-PP-E6]",binds
11,"RNWLDKDCVWMGDCGARAGE (on M13 phage, pIII fusion with E-tag) [DGI-2-20F-4-E3]",binds
12,"LPQSRWLSEAWASWVDGVVD (on M13 phage, pIII fusion with E-tag) [DGI-2-20F-4-F9]",binds
13,"SSVWATWGSDLRTFGSVGFL (on M13 phage, pIII fusion with E-tag) [DGI-2-20F-PP-C7]",binds
14,"MFQDVACDLWHSVRCLRRDV (not fully specified (bridges); cysteine pairing not given here, on M13 phage, pIII fusion with E-tag) [DGI-2-20R-3-B3]",binds
15,"TVKFQGVVQERSRIAGFRYCGDHAVSWGLAGCPALRDKLQ (on M13 phage, pIII fusion with E-tag) [DGI-2-40F-3-C424]",binds
16,"DGKHLTKWSGRGWWSAWVGG (on M13 phage, pIII fusion with E-tag) [DGI-2-20R-3-B12]",binds
17,"RPVVCLAGLTLAQFGWVFPGWRGWS (on M13 phage, pIII fusion with E-tag) [DGI-2-20C-3-C1039]",binds
18,"DAGIGWVGSMWFPPGCIGAC (not fully specified (bridges); cysteine pairing not given here, on M13 phage, pIII fusion with E-tag) [DGI-2-20R-4-E82]",binds
19,"GGGRESWGGGWFMGWGSGAG (on M13 phage, pIII fusion with E-tag) [DGI-2-20R-3-A6]",binds
20,"SIILAGCVWVMPCGQNLGGV (not fully specified (bridges); cysteine pairing not given here, on M13 phage, pIII fusion with E-tag) [DGI-2-20F-PP-C4]",binds
21,"GWGCSVPGILCVGGHRQGGG (not fully specified; cysteine pairing not given here, on M13 phage, pIII fusion with E-tag) [DGI-2-20R-3-B11]",binds
22,"VLQRSLWKDWVDGVMHGGGSRGV (on M13 phage, pIII fusion with E-tag) [DGI-2-20R-3-A7]",binds
